Sequences and labels used below:
B1: MTMR15 (parent)
chain: FSPDFTLRNTLKSTSEDSLVKQEC
B2: RPS21 (parent)
chain: AEVSWEPGRREGCDICAGKAGCPI
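Also: lentivirally expressed fusions sorted by FACS into six bins by GFP to DsRed ratio, PSI derived from sequencing read proportions per bin multiplied by bin number.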

The variants in the first series derive from B1. The series can be described thus: protein stability index of a GFP-peptide fusion (GPS, HEK-293T) (PSI 1-6); higher = more stable. The note with it: c terminus: a fixed tail appended.
With FSPDFTLRNTLKTTSEDSLVKQEC [S13T], the protein stability index was 1.53. As for FSPDFTLRNTLKKTSEDSLVKQEC [S13K], the protein stability index worked out at 1.58.

For the variant FSPDFTLRNTLKNTSEDSLVKQEC [S13N], the protein stability index worked out at 2.69. For FSPDFTLRNTLKFTSEDSLVKQEC [S13F], the protein stability index worked out at 2.13. In the case of FSPDFTLRNTLVSTSEDSLVKQEC [K12V], the protein stability index came to 2.14. The same measure, in the same setting: the result for FSPDFTLRNTLPSTSEDSLVKQEC [K12P] reads 1.77; that for FSPDFTLRNTLYSTSEDSLVKQEC [K12Y], 2.38.

As to FSPDFTLRNTLMSTSEDSLVKQEC [K12M], the protein stability index was 1.81. As to FSPDFTLRNTLQSTSEDSLVKQEC [K12Q], the protein stability index is 1.92.

For the variant FSPDFTLRNTLDSTSEDSLVKQEC [K12D], the protein stability index came out at 2.27. With FSPDFTLRNTLFSTSEDSLVKQEC [K12F], the protein stability index worked out at 2.03. FSPDFTLRNTLKSTSEDSWVKQEC [L19W]: the protein stability index worked out at 1.69. On to FSPDFTLRNTLKSTSEDSCVKQEC [L19C], for which the protein stability index was 2.15.

As for FSPDFTLRNTLKSTSEDSEVKQEC [L19E], the protein stability index was 2.1. On the same count and under the same terms, in the case of FSPDFTLRNTLKSTSEDSHVKQEC [L19H] it was 2.32; in that of FPPDFTLRNTLKSTSEDSLVKQEC [S2P], 2.9; in that of FEPDFTLRNTLKSTSEDSLVKQEC [S2E], 4.8. With FYPDFTLRNTLKSTSEDSLVKQEC [S2Y], the protein stability index was found to be 4.52. Regarding FKPDFTLRNTLKSTSEDSLVKQEC [S2K], the protein stability index was 4.27. On the same count and under the same terms, the result for FSPDFTLRNTLKSTSEPSLVKQEC [D17P] reads 2.08. Take FSPDFTLRNTLKSTSEFSLVKQEC [D17F]: the protein stability index was 2.8.

Regarding FSPDFTLRNTLKSTSEWSLVKQEC [D17W], the protein stability index was 2.6. Take FSPDFTLRNTLKSVSEDSLVKQEC [T14V]: the protein stability index was determined as 2.43.

Consider FSPDFTLRNTLKSQSEDSLVKQEC [T14Q], for which the protein stability index worked out at 2.31.

With FSPDFTLRNTLKSTSFDSLVKQEC [E16F], the protein stability index came to 2.48.

In the case of FSPDFTLRNTLKSTSVDSLVKQEC [E16V], the protein stability index came out at 2.68. Same read-out and setting: the result for FSPDFTLRNTLKSTSSDSLVKQEC [E16S] reads 2.1; that for FSPDFTLRNTLKSTSQDSLVKQEC [E16Q], 2.41. Still for that read-out and setting: the result for FSPDFTLRNTLKSTSIDSLVKQEC [E16I] reads 1.91. The same measure, in the same setting: the result for FSPDFTLRNTWKSTSEDSLVKQEC [L11W] reads 1.81; that for FSPDFTLRNTKKSTSEDSLVKQEC [L11K], 2. As to FSPDFTLRNTDKSTSEDSLVKQEC [L11D], the protein stability index came out at 2.25. With FSPDFTLRNTGKSTSEDSLVKQEC [L11G], the protein stability index is 2.11. Still for that read-out and setting: in the case of FSPDFTLRNTFKSTSEDSLVKQEC [L11F] it was 2.47; in that of FSPDFTLRNTMKSTSEDSLVKQEC [L11M], 2.31. As to FSPDFTLRNTHKSTSEDSLVKQEC [L11H], the protein stability index was 1.76.

In a further series the parent is B2. The series is described as above. To be noted: c terminus: a fixed tail appended.
CEVSWEPGRREGCDICAGKAGCPI [A1C]: the protein stability index worked out at 2.9. Regarding KEVSWEPGRREGCDICAGKAGCPI [A1K], the protein stability index worked out at 2.67.

For the variant REVSWEPGRREGCDICAGKAGCPI [A1R], the protein stability index came to 3.51. Consider FEVSWEPGRREGCDICAGKAGCPI [A1F], for which the protein stability index is 1.94. Same read-out and setting: the result for PEVSWEPGRREGCDICAGKAGCPI [A1P] reads 3.8. On to DEVSWEPGRREGCDICAGKAGCPI [A1D], for which the protein stability index turned out to be 3.94. For YEVSWEPGRREGCDICAGKAGCPI [A1Y], the protein stability index worked out at 2.76.

For the variant HEVSWEPGRREGCDICAGKAGCPI [A1H], the protein stability index is 2.65. SEVSWEPGRREGCDICAGKAGCPI [A1S]: the protein stability index is 2.71. In the case of MEVSWEPGRREGCDICAGKAGCPI [A1M], the protein stability index came out at 3.37. For the variant EEVSWEPGRREGCDICAGKAGCPI [A1E], the protein stability index was found to be 3.49. In the case of VEVSWEPGRREGCDICAGKAGCPI [A1V], the protein stability index came out at 1.36. Turning to GEVSWEPGRREGCDICAGKAGCPI [A1G], the protein stability index was found to be 3.57. As to AEVCWEPGRREGCDICAGKAGCPI [S4C], the protein stability index is 3.24.

For AEVAWEPGRREGCDICAGKAGCPI [S4A], the protein stability index worked out at 4.39. In the case of AEVWWEPGRREGCDICAGKAGCPI [S4W], the protein stability index is 2.79.

For the variant AEVFWEPGRREGCDICAGKAGCPI [S4F], the protein stability index turned out to be 2.45. In the case of AEVKWEPGRREGCDICAGKAGCPI [S4K], the protein stability index was determined as 3.77.

For the variant AEVLWEPGRREGCDICAGKAGCPI [S4L], the protein stability index came out at 3.81. Take AEVTWEPGRREGCDICAGKAGCPI [S4T]: the protein stability index worked out at 2.54. Consider AEVGWEPGRREGCDICAGKAGCPI [S4G], for which the protein stability index turned out to be 3.64.

As for AEVYWEPGRREGCDICAGKAGCPI [S4Y], the protein stability index was 2.92. As to AEVEWEPGRREGCDICAGKAGCPI [S4E], the protein stability index was determined as 4.2.

Consider AEVDWEPGRREGCDICAGKAGCPI [S4D], for which the protein stability index was 3.41. On to AEVVWEPGRREGCDICAGKAGCPI [S4V], for which the protein stability index turned out to be 3.23. As for AEVNWEPGRREGCDICAGKAGCPI [S4N], the protein stability index came to 4.34.

Consider AEVMWEPGRREGCDICAGKAGCPI [S4M], for which the protein stability index stood at 1.58. Still for that read-out and setting: the result for ADVSWEPGRREGCDICAGKAGCPI [E2D] reads 3.79; that for ANVSWEPGRREGCDICAGKAGCPI [E2N], 3.51; that for ARVSWEPGRREGCDICAGKAGCPI [E2R], 1.99. As to AHVSWEPGRREGCDICAGKAGCPI [E2H], the protein stability index was found to be 2.02. With AYVSWEPGRREGCDICAGKAGCPI [E2Y], the protein stability index came out at 2.68.

Regarding ATVSWEPGRREGCDICAGKAGCPI [E2T], the protein stability index was found to be 2.84. As for ASVSWEPGRREGCDICAGKAGCPI [E2S], the protein stability index was 2.94.

On to AMVSWEPGRREGCDICAGKAGCPI [E2M], for which the protein stability index was determined as 2.83. Turning to ALVSWEPGRREGCDICAGKAGCPI [E2L], the protein stability index was determined as 3.09.

In the case of AKVSWEPGRREGCDICAGKAGCPI [E2K], the protein stability index was 1.92. The same measure, in the same setting: in the case of ACVSWEPGRREGCDICAGKAGCPI [E2C] it was 2.91; in that of AGVSWEPGRREGCDICAGKAGCPI [E2G], 3.38; in that of AFVSWEPGRREGCDICAGKAGCPI [E2F], 1.23. On the same count and under the same terms, in the case of AQVSWEPGRREGCDICAGKAGCPI [E2Q] it was 2.36; in that of AEPSWEPGRREGCDICAGKAGCPI [V3P], 3.87.

For AEFSWEPGRREGCDICAGKAGCPI [V3F], the protein stability index is 2.68. Take AEQSWEPGRREGCDICAGKAGCPI [V3Q]: the protein stability index came to 3.17. For AEESWEPGRREGCDICAGKAGCPI [V3E], the protein stability index was 4.58. On to AECSWEPGRREGCDICAGKAGCPI [V3C], for which the protein stability index was 3.78. Regarding AEWSWEPGRREGCDICAGKAGCPI [V3W], the protein stability index was 3.27. In the case of AEASWEPGRREGCDICAGKAGCPI [V3A], the protein stability index came out at 4.16. On to AEDSWEPGRREGCDICAGKAGCPI [V3D], for which the protein stability index worked out at 4. Regarding AEHSWEPGRREGCDICAGKAGCPI [V3H], the protein stability index is 4.16. In the case of AEKSWEPGRREGCDICAGKAGCPI [V3K], the protein stability index was 4. As to AEYSWEPGRREGCDICAGKAGCPI [V3Y], the protein stability index is 3.54. Consider AESSWEPGRREGCDICAGKAGCPI [V3S], for which the protein stability index is 3.34.

Regarding AEISWEPGRREGCDICAGKAGCPI [V3I], the protein stability index amounted to 2.23. In the case of AETSWEPGRREGCDICAGKAGCPI [V3T], the protein stability index came out at 3.66. Consider AEGSWEPGRREGCDICAGKAGCPI [V3G], for which the protein stability index turned out to be 4. Still for that read-out and setting: the result for AERSWEPGRREGCDICAGKAGCPI [V3R] reads 3.01; that for AEMSWEPGRREGCDICAGKAGCPI [V3M], 1.9.
